Laboratory results taken from the nanobody polyreactivity screen of Harvey et al. (2022).

Assay: yeast display, Sf9 membrane polyspecificity reagent, FACS + sequencing; frameworks hold sequencing errors
Outline: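 Synthetic nanobody libraries on Saccharomyces cerevisiae BJ5465 were galactose-induced for 36–48 hours, stained 1 hour at 4 °C with 10% biotinylated, detergent-solubilized Sf9 membrane reagent and enriched on streptavidin microbeads. FACS then separated cells into low and high (top ~1%) gates by anti-HA (expression) and streptavidin (reagent binding) fluorescence. Genes were colony-PCR amplified, MiSeq 2 × 250 sequenced and CDR-length filtered. A clone's polyreactivity label is that of its gate of origin.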

Sequence	polyreactivity (PSR sort gate)
QVQLVESGGGLVQAGGSLRLSCAATGLIFSLYAMGWYRQAPGKERELVAAISASDGSTYYADSVKGRFTISRDNAKNTVYLQMNSLKPEDTAVYYCAADSRPTQEYDYWGQGTQVTVSS	low polyreactivity
QVQLVDSGGGLVQAGGSLRLSCAASGSTFRLYAMGWYRQAPGKERALVAAITRGGITYYADSVKGRFTISRDNAKNTVYFQMNSLKPEDTAVYYCAATTFGPYALYPRYYYWGQGTQVTVSS	high polyreactivity
QVQLVESGGGIVQAGGSLRLSFAASGSIFEGNALGWYRQEPGKEMEFVAAITKRGGSTYYADSVKGRFTISRDNAKNTVYLQMIWLKPEDTAGYYCAADRSYPRAGRYNYWGQGTQVTVSS	low polyreactivity
QVQLVESGGGLVQAGGSLRLSCAASGRIFPGYTMGWYRQAPGKERELVAGISRSGGRTYYADSVKGRFTISRDNAKNTVYLQMNSLKPEDTAVYYCADDGYPGRRYTGMDYWGQGTQVTVSS	high polyreactivity
QVHLVESGRGLFQAGGSLRLSCAASGFTFTTYVMGWYRQAPGKERELVAAITSGGSTNYADSVKGRFTISRDNAKNTVFLQMNSLKPEDTAVYFCNAVKDDGKGSYPNLHVFDYDYWGQGTQVTVSS	low polyreactivity
QVQLVESGGGLVQAGGSLRLSCAASGRILPYNVMGWYRQAPGKEREFVAAITGSGGDTYYADSVKGRFTISRDNAKNTVYLQMNSLKPEDTAVYYCAAAPYIGGSFGQTPGSGYWGQGTQVTVSS	low polyreactivity
QVQLVESGGCLVQAGGSLRLSCAASGSTFTIYVMGGYRQAPGKERELVAAITWSDGITYYADSVKGRFTISRDNAKNTVYLQMNSLKPEDTAVYYCRDSHPSYRPGTVRYDYWGQGTQVNVSS	low polyreactivity
QVQLVESGGGLVQAGGSLRLSCAASGSTFNVYAMGWYRQAPGKERELVARISWSGGNTYYADSVKGRFTISRDNAKNTVYLQMNSLKPEDTAVYYCATKGYTGYAYRYGYWGQGTQVTVSS	high polyreactivity
QVQLEESGGGLVHAGGSLRLICAASGSTFSTYAMRWYRQAPGKERELVARITRGGSTNYADSVKGRFTISRDNAMNTVYLQMNCLKPDDTAVYYFSAGIRSGRKYDYWGQGTQVTVSS	low polyreactivity
QVQLVESGGGLVQAGGSLRLSCAASGSIFSYYVMGWYRQAPGTERELVAAISYSGGRTYYADSVKGRFTISRDNAKNTVYLQMNSLKPEDTAVYYCAASRRVGEVSYYYWGQGTQVTVSS	high polyreactivity
QVQHVESGGGLVQAGGSLRLSCAASVLIFYIYAMGWYRQAPGKERELVAAITTGGRTNYADSVKGRFTISRDNAKNTVYLQMKSLKPEDTEVYYCAKDFPIWISHGPDTDNDYGGQGTQVTVSS	low polyreactivity
QVQLVESGGGLVQAGGSLRLSCAASGSTFHGYAMGWYRQEPGKERELVAAITSGDSTNYADSVKGRFTISRDNAKNTVYLQMNSLKPEDTAVYYCNAEGSSVLTGYWGYPPYWDTYDYWGQGTQVTVSS	low polyreactivity
QDQLVESGGGLVQAGGSLRLSCPASGFTFERNTMGWYRQAPGKERELVAVITRRGGNTNYADSVKGRFTISRDNAKNTVYLQMNSLKPEDTAVYYCAAYYSHYGTRYDYWGQGTQVTVSS	high polyreactivity
QVQLVESGGGLVQAGGSLRLSCAASGRTFVHYTMGWYRQAPGKERELVAAISGTGTSTYYADSVKGRFTISRDNAKNTVYLQMNSLKPEDTAVYDCARDPYFGFLIGYPRRDYWGQGTQVTVSS	low polyreactivity
QVQLVESGAGLVQARGSLRLSCAASGFTISYYAMGWYRQAPVKERELVAAITSGGSTYYADYVKGRFTISRDNAKNTVYVQMNSLKPEDTAVYYCIADGWYYPTDDYWGQGSQVTVSS	low polyreactivity
QVQLVESGGGLVQAGGSLRLSCAASGFIFAANAMGWYRQAPGKEMELVARIRSTGRTSYADSVKGRFTISRDNAKNTVYLQMNSLKPEDTAVYYCATDYYRYRDYAYYWLDYNYWGQGTQVTVSS	high polyreactivity
QVQLVESGGRLVQAGGSLRLSCAASGITFGVYAMGWYRQAPGKERELVAAISRRGAATYYADSVKGRFTISRDNAKNTVYLQMNSLKPEDTAVYYCAAYLARRQYDYWGQGTHVTVSS	high polyreactivity
QVQLVESGGGLVQAGGSLRLSCAASGFYNTMGWYRQAPGKERELVAAISTGGITNYADSVKGRFTISRDNSKNTFYFQMKSLIPEDTAVYYCAADGYSTVSSTYDYWGQGTQVTVSS	low polyreactivity
QVQLVESGGGLVQAGGSLRLSCAASGFIFSCYAMGWDRQAPGKERELVAAISWSGGSTYYADSVKGRFTISRDNAKNTVYLQMNSLKPEDTAVYYCAADRGYRRLFLNNVDYWGQGTQVTVSS	high polyreactivity
QVQLVESGGGLVQAGGSLRLSCAASGLTLRTNSMRLYIQAPGKERELVAAISRSGVRTYYAHSVKGRFTISRDNAKNTVYLQMNSLKPEDTAVYYCNAEFSPYPYDYWGQGTQVTVSS	high polyreactivity
QVQLVESGGGLVQAGGSLRLSCAASGSILYANAMGWYRQAPGKDRELVAAISARGTSTYYADSVKGRFTISRDNAKNTVYLQMNSLKPEDTAVYYCAAYVRKKLPSALMNYWGQGTQVTVSS	high polyreactivity
QVQLQESGGGLVKAGGSLRLSCAASGNISPRDAMGWYRQAPGEERDLVASNAYSAITYYADCVKGRYTISRDNAKNTVYLQINSLKPEDTEVYYCAVYQFTYPVFPAYWGQGTQVTVSS	low polyreactivity

Sequence	polyreactivity (PSR sort gate)
QVQLVESGGGLVQAGGSLRLSCAASGSIAHYAMGWYRQDPGKERELVAAINWSGGSTNYADSVKGRFTISRDNAKNTVYLQMNSMKPEDTAVYYCSAQKRGPGYPYYYWGQGTQVTVSS	high polyreactivity
QVQLVESGGGLVQAGGSLRLSCAASGSIFTVYAMGWYRQAPGKERELVAVINYRGGNTYYADSVKGRFTISRDNAKNTVYLQMNSLKPEDTAVYYCATEVSWHWYQLSVPRMDYWGQGTQVTVSS	low polyreactivity
QVQLVESGGGLVQAGGSLRLSCAASGSIFDANAMGWYRQAPGKEREVVAAISYRGGRTYYADSVKGRFTISRDNAKNTVYLQMNSLKPEDTAVYYCNAGISHRSDNGIDGYYWGQGTQVTVSS	high polyreactivity
QVQLVESGGGLVQAGGSLRLSCAASGSTQVYYDMGWYRQAPAKERELVATITGTDSTYYADSVKGRFTISRDNAKNTVYLQMNSLKPEDTADCAADRAASRPDYDYWGEGTQVTVSS	low polyreactivity
QVQLVESGGRLVQAGGSLRLSCAASGGIFYYNAMGRYRQAPGKERELVAAIRYRGGSTYYADSVKGRFTISRDNAKNTVYLQMNSLKPEDTAVYYCAADYYRSRYYYWGQGTQVTVSS	low polyreactivity
QVHLVESGGGLVQAGGSLRLSCDASGSIFPVNAMGWYRQAPGKERELVATITWRGGRTYYADSVKGRFTISRDNAKNTVYLQMNSLKPEDTAVYYCAARLLYRHFGYWGQGTQVTVSS	high polyreactivity
QVQLVESGGGLVQAGGSLRLSCAPSGNTFWDNAMGWYRQAPGKERELVAAIRWSTGSTHYADSVKGRFTISRDNAKNTVYLQMNSVKPEDTAVYYCDATDYYYYRDKYYGYDYWGQGNQVTVSS	low polyreactivity
QVQLVESGGGLVQAGGSLRLSCAASGRIFTYNAMGWSRQAPGKERELVATITNGGRTYYADSVKGRFTISRDNAKNTVYLQMNSLKPEDTAVYYCNAGYITYWYAVFYQIDDYWGQGTQVTVSS	low polyreactivity
QVQLVESGGGLVQAGGSLRLSCAASGSTFSYNAMGWYRQAPGKERELVAAITSRGGSTRYADSVKGRFTISRDNAKNTVYLQMNSLKPEDTAVYYCARPYSYYPYSTVNYWGQGTQVTVSS	high polyreactivity
QVQLVESGGGLVQAGGSLRLSCAASGTTIPRNAMGWYRQAPGKERELVAAITSGGSTNYADSVKGRFTISRDNAKNTVYLQMNSLKPEDTAVYYCAADEQVNTQYVVWGDYWGQGTQVTVSS	low polyreactivity
QVQLVESAGGLVQAGGSLRLSGSASGIIIASNGMGWYRQPPGKERELVAAISSGGSTNYADSVKGRFTISRDNAKNTVYLQMNSLKPEDTAVYYCADDRWYREYDYWGQGTQVTVSS	low polyreactivity
QVQLVESGGGLVQAGCSLRLSCAASGYIFYNAMGWYRQAPGKERELVAAITSGGSTNYADSVKGRFTISRDNAKNTVYFQMNSLKPEDTADYYCNAVVYSPYRYEYWGQGTQVTVSS	low polyreactivity
QVHLVESGGGLVQAGGSLRLSCAASGSTFRLYALGWYRQAPGKERELVAVISRSGGRTYADSVKGRFTISRDNAKNTVYLQMNSLKPVDTAVYYCAKARHKSPTYTHDSWGQGTQVTVSS	high polyreactivity
QVQLVESGGGLVQAGGSLRLSCAASGSTFPYNAMGWYRQAPGKERELVAAITGRGGSTYYADSVKGRFTISRDNAKNTVYLQMNSLKPEDTAVYYCAARYLYLLYYWGQGTQVTVSS	high polyreactivity
QVQLVESGGGLVQAGGSLRLSCAASGSIFASYAMGWYRQAPGKERELVAAITYSGSRTYYADSVKGRFTISRDTAKNTVYLQMNSLKPEDTAVYYCNADYYWYPYEDDYWGQGTQETVSS	low polyreactivity
QVQLVESGGGLVQAGGSLRLICAASGRIFLGYAMGWYRQAPGKERELVARITLIGGGTNYADSVKGRFTISRDNAKNTVYLQMNSLKPVDTAVYYCAAKSPLRPWWVGAVSGNYWGQGTQVTVSS	low polyreactivity
QVQLVESGGGLVQAGGSLRLSCADSGGILFNYDMGWYRPAPGKERELVAAISRRGGTTYYADSVKGRFTISRDNAKNTVYLQMNSLKPEDTAVYYCAAYIYYSYYARVGYGDGNGYDYWGQGTQVTVSS	high polyreactivity
QVQLVESGGGLVQAGGSLRLSCAASGFTFRANAMGWYRQAPGKERELVAAISQSGGRTNYADSVKGRFTISRDNAKNTVYLQMNSLKPEDTAVYYCAAPYSAKELYYRMDYWGQGTQVTVSS	high polyreactivity
QVQLVESGGGLVQAGGSLRLSCAASGRTFFYYTMGWYRQAPGKERELVAAITYSGTSTYYADSVKGRFTISRDNAKNTVYLQMNSLKPEDTAVYYCAADWYVTHQGYTSGIWYVEYDYWGQGTQVTVSS	low polyreactivity
QVQLVESGGGLVQAGGSLRLSCAASGSILEPYAMGWYRQAPGKERELVATIRRGGSTYYADSVKGRFTISRDNAKNTVYLQMNSLKPEDTAVYYCAADRSVQVTFDYWGQGTQVTVSS	low polyreactivity
QVQLVESGGGLVQAGGSLRLSCAASGFIFTIYAMGWYRQAPGKERELVAAISSGGSTTYADSVKGRFTISRDNAKNTVYLQMNSLKPEDTAVYYCNAGVDPFGSLLPFTDQYDYWGQGTQVTVSS	low polyreactivity
